Experiment in all cases: cell-based or functional assay
One assay deals with T1, GIP receptor.
T1 sequence (P48546 whole entry, species assumed, looked up): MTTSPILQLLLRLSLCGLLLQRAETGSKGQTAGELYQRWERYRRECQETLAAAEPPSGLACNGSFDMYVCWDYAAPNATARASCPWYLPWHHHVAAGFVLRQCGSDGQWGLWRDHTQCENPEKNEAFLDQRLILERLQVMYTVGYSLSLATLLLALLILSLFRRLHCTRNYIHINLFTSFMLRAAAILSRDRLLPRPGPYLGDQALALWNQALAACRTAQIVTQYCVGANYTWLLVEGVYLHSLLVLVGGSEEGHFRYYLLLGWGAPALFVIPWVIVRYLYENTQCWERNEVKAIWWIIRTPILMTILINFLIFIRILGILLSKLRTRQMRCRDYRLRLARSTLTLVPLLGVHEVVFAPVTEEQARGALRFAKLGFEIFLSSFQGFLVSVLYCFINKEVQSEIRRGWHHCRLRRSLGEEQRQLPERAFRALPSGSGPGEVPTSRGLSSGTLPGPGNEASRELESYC

In another assay the target is GLP-1 receptor.
For the next assay, the target named is glucagon receptor.

Numbered stars: 1 amine (or outer) side, 2 acyl side, 3 side chain; on linkers, the order of the positions; unused ones are H or OH. Square brackets hold non-standard residues; d marks the D form. Side chains are listed from the residue outwards. Ends that are not written are not given here. * marks the point of attachment. γGlu = O=C(O)[C@H](CCC(=O)[*:2])N[*:1]; Desaminohistidyl = O=C(CCc1c[nH]cn1)*; Palmitoyl = CCCCCCCCCCCCCCCC(=O)*; Aib = CC(C)(N)C(=O)O

B1: peptide of SEQ ID NO: 20 (peptide)
peptide: [Desaminohistidyl][dS]QGTFTSDK([γGlu-Palmitoyl])SKYLDERAAQDFVQWLLDT-NH2
Take B1: the “EC50 (nM) at GIP receptor” value in the assay with GIP receptor amounted to 1.38 nM. In addition, the “EC50 (nM) at GLP-1 receptor” value in the assay with GLP-1 receptor was determined as 0.004 nM. The “EC50 (nM) at glucagon receptor” value in the assay with glucagon receptor was 0.006 nM.

B2: peptide of SEQ ID NO: 59 (peptide)
peptide: H[Aib]QGTFTSDK(Palmitoyl)SKYLDERRA[Aib]DFVQWLMNT-NH2
modifications: N-terminus assumed
SMILES: CCCCCCCCCCCCCCCC(=O)NCCCC[C@H](NC(=O)[C@H](CC(=O)O)NC(=O)[C@H](CO)NC(=O)[C@@H](NC(=O)[C@H](Cc1ccccc1)NC(=O)[C@@H](NC(=O)CNC(=O)[C@H](CCC(N)=O)NC(=O)C(C)(C)NC(=O)[C@@H](N)Cc1c[nH]cn1)[C@@H](C)O)[C@@H](C)O)C(=O)N[C@@H](CO)C(=O)N[C@@H](CCCCN)C(=O)N[C@@H](Cc1ccc(O)cc1)C(=O)N[C@@H](CC(C)C)C(=O)N[C@@H](CC(=O)O)C(=O)N[C@@H](CCC(=O)O)C(=O)N[C@@H](CCCNC(=N)N)C(=O)N[C@@H](CCCNC(=N)N)C(=O)N[C@@H](C)C(=O)NC(C)(C)C(=O)N[C@@H](CC(=O)O)C(=O)N[C@@H](Cc1ccccc1)C(=O)N[C@H](C(=O)N[C@@H](CCC(N)=O)C(=O)N[C@@H](Cc1c[nH]c2ccccc12)C(=O)N[C@@H](CC(C)C)C(=O)N[C@@H](CCSC)C(=O)N[C@@H](CC(N)=O)C(=O)N[C@H](C(N)=O)[C@@H](C)O)C(C)C
Turning to B2, in the assay with GIP receptor, the “EC50 (nM) at GIP receptor” value is 7.48 nM. Also, the “EC50 (nM) at GLP-1 receptor” value with GLP-1 receptor was 0.01 nM. In addition, in the assay with glucagon receptor, the “EC50 (nM) at glucagon receptor” value came to 0.051 nM.

B3: peptide of SEQ ID NO: 61 (peptide)
peptide: HXQGTFTSDKSKYLDERAAQDFVQWLMDT
modifications: aib at 2; Lys 10 with γEγEC16; C-terminal amide
B3: in the assay with GIP receptor, the “EC50 (nM) at GIP receptor” value was 0.676 nM. Also, the “EC50 (nM) at GLP-1 receptor” value with GLP-1 receptor was found to be 0.004 nM. Besides, the “EC50 (nM) at glucagon receptor” value with glucagon receptor was 0.009 nM.

B4: peptide of SEQ ID NO: 60 (peptide)
peptide: H[Aib]QGTFTSDK([γGlu-Palmitoyl])SKYLD[Aib]RAAQDFVQWLMKTK[dE]-OH
As to B4, in the assay with GIP receptor, the “EC50 (nM) at GIP receptor” value is 147 nM. For the same molecule, in the assay with GLP-1 receptor, the “EC50 (nM) at GLP-1 receptor” value came out at 0.033 nM. Further, the “EC50 (nM) at glucagon receptor” value with glucagon receptor stood at 4.6 nM.

B5: peptide of SEQ ID NO: 19 (peptide)
peptide: H[dS]QGTFTSDK([γGlu-Palmitoyl])SKYLDERAAQDFVQWLLDGRG-NH2
As to B5, the “EC50 (nM) at GIP receptor” value in the assay with GIP receptor was determined as 0.812 nM. The “EC50 (nM) at GLP-1 receptor” value in the assay with GLP-1 receptor turned out to be 0.002 nM. For the same molecule, in the assay with glucagon receptor, the “EC50 (nM) at glucagon receptor” value is 0.004 nM.

B6: peptide of SEQ ID NO: 21 (peptide)
peptide: Ac-H[dS]QGTFTSDK([γGlu-Palmitoyl])SKYLDERAAQDFVQWLLDT-NH2
Regarding B6, in the assay with GIP receptor, the “EC50 (nM) at GIP receptor” value was 4.5 nM. For the same molecule, the “EC50 (nM) at GLP-1 receptor” value in the assay with GLP-1 receptor was 0.009 nM. Further, in the assay with glucagon receptor, the “EC50 (nM) at glucagon receptor” value was found to be 0.005 nM.
